In data set [1] the target is SARS-CoV-2 spike S2 protein (SARS-CoV-2, UniProt P0DTC2 P0DTC2:686-1213).
Data set [2] has as its target SARS-CoV-2 spike S1 protein (SARS-CoV-2, UniProt P0DTC2 P0DTC2:14-685).

B1: Rho94 (DAF2-30e-17) (ssRNA)
RNA: GGUAGCCCUGCCCGGUGUACCUGAGCCUAGCUCAACGACUCGCUUCGGCGAUGAUGGAGAGGCGCAAGGUUAACCGCCUCAGUCGAAUGGGUACACCUGGCAGUCCGGACAUGCAU
For the molecule B1, the binding result is “binds” in data set [1] and “no binding” in data set [2].

B2: Rho91 (DAF1-4560c-17) (ssRNA)
RNA: GGCGAUGCUAGGCUACGACUAGGCCUGAGAAUACUAGUCAAAGACGAUCGCUCGCUUCGGCGAUGAUGGAGAGGCGCAAGGUUAACCGCCUCAGCGUUCAAGCAAAAGAACCCUGUUUGGCUCACCGGGUCCUGCGCAU
As for B2, the binding result is listed as “binds” in data set [1] and “no binding” in data set [2].

The record behind these values is patent US20230304075, “NUCLEIC ACID-BASED BIOSENSOR AND ASSOCIATED METHODS” (FACible BioDiagnostics LLC, published 2023).
